Test results taken from article PMC5041027 (Membranes, 2016).

Target: Bacillus anthracis protective antigen, 63 kDa activated form (PA63), as ion channels in a tethered b (B. anthracis, UniProt P13423)
Assay: SPR
Settings: both partners purified

Chain of Bacillus anthracis protective antigen, 63 kDa activated form (PA63), as ion channels in a tethered b (P13423 197-764): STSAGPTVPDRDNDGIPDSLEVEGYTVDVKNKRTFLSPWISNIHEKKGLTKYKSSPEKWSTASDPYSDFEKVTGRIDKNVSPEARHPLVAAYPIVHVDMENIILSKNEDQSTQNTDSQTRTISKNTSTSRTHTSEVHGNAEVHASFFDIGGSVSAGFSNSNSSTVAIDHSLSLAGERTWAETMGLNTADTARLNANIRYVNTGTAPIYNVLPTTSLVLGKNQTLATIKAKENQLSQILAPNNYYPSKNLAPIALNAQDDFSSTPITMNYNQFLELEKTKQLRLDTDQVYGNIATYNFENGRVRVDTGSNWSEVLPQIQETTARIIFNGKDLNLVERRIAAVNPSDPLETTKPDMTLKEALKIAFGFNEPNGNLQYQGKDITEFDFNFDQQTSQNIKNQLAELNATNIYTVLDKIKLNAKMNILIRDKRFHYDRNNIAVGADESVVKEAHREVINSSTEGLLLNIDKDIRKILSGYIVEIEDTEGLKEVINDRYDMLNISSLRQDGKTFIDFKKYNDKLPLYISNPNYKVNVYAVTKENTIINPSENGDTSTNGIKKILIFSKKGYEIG

B1: Bacillus anthracis Lethal Factor (natural protein)
chain: AGGHGDVGMHVKEKEKNKDENKRKDEERNKTQEEHLKEIMKHIVKIEVKGEEAVKKEAAEKLLEKVPSDVLEMYKAIGGKIYIVDGDITKHISLEALSEDKKKIKDIYGKDALLHEHYVYAKEGYEPVLVIQSSEDYVENTEKALNVYYEIGKILSRDILSKINQPYQKFLDVLNTIKNASDSDGQDLLFTNQLKEHPTDFSVEFLEQNSNEVQEVFAKAFAYYIEPQHRDVLQLYAPEAFNYMDKFNEQEINLSLEELKDQRMLARYEKWEKIKQHYQHWSDSLSEEGRGLLKKLQIPIEPKKDDIIHSLSQEEKELLKRIQIDSSDFLSTEEKEFLKKLQIDIRDSLSEEEKELLNRIQVDSSNPLSEKEKEFLKKLKLDIQPYDINQRLQDTGGLIDSPSINLDVRKQYKRDIQNIDALLHQSIGSTLYNKIYLYENMNINNLTATLGADLVDSTDNTKINRGIFNEFKKNFKYSISSNYMIVDINERPALDNERLKWRIQLSPDTRAGYLENGKLILQRNIGLEIKDVQIIKQSEKEYIRIDAKVVPKSKIDTKIQEAQLNINQEWNKALGLPKYTKLITFNVHNRYASNIVESAYLILNEWKNNIQSDLIKKVTNYLVDGNGRFVFTDITLPNIAEQYTHQDEIYEQVHSKGLYVPESRSILLHGPSKGVELRNDSEGFIHEFGHAVDDYAGYLLDKNQSDLVTNSKKFIDIFKEEGSNLTSYGRTNEAEFFAEAFRLMHSTDHAERLKVQKNAPKTFQFINDQIKFIINS
- stoichiometry N: 2 LF molecules per PA63 channel
